Measured values: patent publication US20190022243A1

Target: human AXL (full length) (human (Homo sapiens)) (UniProt P30530)
Experiment: flow cytometry, A431 cells pre-incubated with 10 µg/mL Gas6 (competitor: Gas6)

B1: IgG1-YW327.6S2 (antibody, from another filing, V domains shown)
VH: EVQLVESGGGLVQPGGSLRLSCAASGFSLSGSWIHWVRQAPGKGLEWVGWINPYRGYAYYADSVKGRFTISADTSKNTAYLQMNSLRAEDTAVYYCAREYSGWGGSSVGYAMDYWGQGTLVTVSS
VL: DIQMTQSPSSLSASVGDRVTITCRASQDVSTAVAWYQQKPGKAPKLLIYSASFLYSGVPSRFSGSGSGTDFTLTISSLQPEDFATYYCQQSYTTPPTFGQGTKVEIK
A fold higher EC50 after Gas6 pre-incubation than without Gas6 of 21 fold and a maximal binding in the presence of Gas6 (% of binding without Gas6) of 19% were found for B1 in this work.
